Data taken from paper PMC5122161, “Novel prokaryotic expression of thioredoxin-fused insulinoma associated protein tyrosine phosphatase 2 (IA-2), its characterization and immunodiagnostic application” (BMC Biotechnology, 2016).

Molecular target: the molecule itself
Test: SEC; Superdex 75 HR 10/30, PBS as mobile phase, room temperature, 1.0 mL/min, 50 ug/500 uL purified TrxIA-2ic injected; calibration with globular standards; eluted fractions identified by western blot with rabbit serum to IA-2

B1: intracellular domain of IA-2 fused to thioredoxin (TrxIA-2ic) (domain or fragment, human, UniProt Q16849 604-979, looked up)
chain: ARQQDKERLAALGPEGAHGDTTFEYQDLCRQHMATKSLFNRAEGPPEPSRVSSVSSQFSDAAQASPSSHSSTPSWCEEPAQANMDISTGHMILAYMEDHLRNRDRLAKEWQALCAYQAEPNTCATAQGEGNIKKNRHPDFLPYDHARIKLKVESSPSRSDYINASPIIEHDPRMPAYIATQGPLSHTIADFWQMVWESGCTVIVMLTPLVEDGVKQCDRYWPDEGASLYHVYEVNLVSEHIWCEDFLVRSFYLKNVQTQETRTLTQFHFLSWPAEGTPASTRPLLDFRRKVNKCYRGRSCPIIVHCSDGAGRTGTYILIDMVLNRMAKGVKEIDIAATLEHVRDQRPGLVRSKDQFEFALTAVAEEVNAILKALPQ
notes: insulinoma associated protein tyrosine phosphatase 2 (IA-2), human, intracellular domain IA-2ic, residues 604 to 979 of the 979-residue protein; codon-optimised synthetic gene adapted from GenBank L18983.1; Thioredoxin was not removed; also called thioredoxin-fused insulinoma associated protein tyrosine phosphatase 2; not shown: thioredoxin (E. coli), N-terminal, kept
- stoichiometry N: 2
